Experimental findings from patent US20210300985A1 (published 2021) are described below.

Where only a bound is given, the exact number is not on record here.

As a reminder, the IC50 is the concentration that inhibits the measured activity by half. A higher IC50 goes with a need for much substance.

Some targets named below: HLA-DRB1*0701 (human); HLA-DRB1*1101 (human); HLA-DRB1*0101 (human); HLA-DRB1*0401 (human); HLA-DRB1*0301 (human); HLA-DRB1*1301 (human); HLA-DRB1*1501 (human).
What all share (assay): competition binding; FIG. 35A

For the molecule KIVFKNMASRPYSIY [SEQ ID NO: 3 (KIVFKNMASRPYSIY)], the IC50 with HLA-DRB1*0701 worked out at 7.03 µM; with HLA-DRB1*1101, 4.36 µM; in the experiment with HLA-DRB1*0101 it was 2.17 µM; with HLA-DRB1*0401 it was 20.1 µM; with HLA-DRB1*0301 it was 78.6 µM; with HLA-DRB1*1301, 2.96 µM. In addition, the IC50 with HLA-DRB1*1501 came out at 2.69 µM.
With EKDIHSGLIGPLLI [SEQ ID NO: 6 (EKDIHSGLIGPLLI)], the IC50 in the experiment with HLA-DRB1*0101 stood at 1.92 µM; with HLA-DRB1*1501 it was 2.02 µM.
In the case of SHEFHAINGMIYSLP [SEQ ID NO: 7 (SHEFHAINGMIYSLP)], the IC50 with HLA-DRB1*0701 is less than 1 µM; in the experiment with HLA-DRB1*1101, 33.7 µM; with HLA-DRB1*0101 it was less than 1 µM; with HLA-DRB1*0401 it was 30.6 µM; with HLA-DRB1*1301, 84.4 µM; with HLA-DRB1*1501 it was less than 1 µM.
For ESNIMSTINGYVPES [SEQ ID NO: 5 (ESNIMSTINGYVPES)], the IC50 in the experiment with HLA-DRB1*0701 stood at 2.79 µM; with HLA-DRB1*0401, 96.4 µM; with HLA-DRB1*0301 it was 80.5 µM; with HLA-DRB1*1501 it was 4.22 µM.
